Drawing on publication PMC6159513, this text covers binding result and Kd for 6 molecules.

Among the targets are TLS/FUSΔR (UniProt P35637 1-506); RGG3ΔP (UniProt P35637 469-526); TLS/FUSΔP (UniProt P35637 1-526, del449-468); RGG3 (UniProt P35637 449-526); TLS/FUS (UniProt P35637 1-526).
Assay in all cases: EMSA
Background: In EMSA bound probe runs differently from free probe, usually more slowly.

A further data set addresses T1, RGG3ΔRGG (UniProt P35637 449-526, del468-506).
T1 chain: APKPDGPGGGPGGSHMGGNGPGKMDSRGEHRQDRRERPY

The target of data set [1] is RBD (RGG1-RGG2-RGG3 containing) (UniProt P35637 212-526).
Chain of RBD (RGG1-RGG2-RGG3 containing) (P35637 212-526): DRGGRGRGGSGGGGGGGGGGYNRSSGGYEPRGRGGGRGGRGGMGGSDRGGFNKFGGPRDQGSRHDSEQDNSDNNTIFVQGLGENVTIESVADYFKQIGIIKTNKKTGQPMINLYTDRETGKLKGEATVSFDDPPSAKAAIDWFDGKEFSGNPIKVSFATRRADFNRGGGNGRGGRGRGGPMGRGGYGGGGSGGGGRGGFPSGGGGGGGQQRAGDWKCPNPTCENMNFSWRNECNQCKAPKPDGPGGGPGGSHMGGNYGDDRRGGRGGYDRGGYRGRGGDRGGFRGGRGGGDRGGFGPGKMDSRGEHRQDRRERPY

Chain of TLS/FUSΔR (P35637 1-506, stated change not applied): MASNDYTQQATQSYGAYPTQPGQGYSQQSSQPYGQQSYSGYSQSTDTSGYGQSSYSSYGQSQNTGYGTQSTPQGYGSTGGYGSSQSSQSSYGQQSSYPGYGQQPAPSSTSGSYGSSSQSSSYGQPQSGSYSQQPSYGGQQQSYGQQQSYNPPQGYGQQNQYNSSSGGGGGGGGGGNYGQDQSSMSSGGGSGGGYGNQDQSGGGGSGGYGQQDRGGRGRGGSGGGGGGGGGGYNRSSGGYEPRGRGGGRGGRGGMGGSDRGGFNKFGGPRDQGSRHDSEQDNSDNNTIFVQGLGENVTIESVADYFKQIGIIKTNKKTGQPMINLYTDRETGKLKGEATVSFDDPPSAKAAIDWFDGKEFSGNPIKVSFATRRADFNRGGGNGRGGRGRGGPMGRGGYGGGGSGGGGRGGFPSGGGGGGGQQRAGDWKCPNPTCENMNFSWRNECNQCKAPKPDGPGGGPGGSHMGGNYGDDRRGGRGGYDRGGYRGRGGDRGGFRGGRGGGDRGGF

B1: Htelo (structured_DNA)
DNA: AGGGTTAGGGTTAGGGTTAGGG
One may read the Kd as the equilibrium constant for the complex coming apart. Low values mean a tighter complex, high ones a looser complex. As to B1, the binding result with TLS/FUSΔR, in the data set with RGG3ΔP, in the data set with TLS/FUSΔP and with RGG3ΔRGG was “no binding” throughout. Also, binding in data set [1] was put at a Kd of 6.7 ± 2 nM.

B2: dsDNA (dsDNA)
DNA 1: AGGGTTAGGGTTAGGGTTAGGG
DNA 2: CCCTAACCCTAACCCTAACCCT
In the case of B2, the binding result with TLS/FUSΔR and with TLS/FUSΔP was “no binding” throughout.

B3: ssRNA (ssRNA)
RNA: UUAGGGUUAGUGUUAGUGUUAGGG
As for B3, the binding result in the data set with RGG3 is listed as “no binding”; with TLS/FUS, “binds”; in the data set with TLS/FUSΔR, “no binding”; with TLS/FUSΔP it was “no binding”; in the data set with RGG3ΔRGG, “no binding”.

B4: TERRA (structured_RNA)
RNA: UUAGGGUUAGGGUUAGGGUUAGGG
On to B4, for which the binding result with TLS/FUSΔR, with RGG3ΔP, in the data set with TLS/FUSΔP and with RGG3ΔRGG was “no binding” each time. In data set [1], the equilibrium dissociation constant (Kd) was 6.2 ± 2 nM.

B5: dsRNA (dsRNA)
RNA 1: UUAGGGUUAGGGUUAGGGUUAGGG
RNA 2: CCCUAACCCUAACCCUAACCCUAA
B5: the binding result with TLS/FUSΔR and in the data set with TLS/FUSΔP was “no binding” each time.

B6: ssDNA (ssDNA)
DNA: AGGGTTAGTGTTAGTGTTAGGG
For B6, the binding result in the data set with RGG3, with TLS/FUSΔR, with TLS/FUSΔP and in the data set with RGG3ΔRGG was “no binding” each time.
